# Test results from article PMC3635987.
# Target: PrgH_(11–120), cytoplasmic domain of the inner-membrane ring protein PrgH (Salmonella enterica serovar Typhimurium) (UniProt P41783)
# Assay: crystal structure; PrgH_(11–120) at 5–10 mg/ml, 20°C, 15–20% PEG 6000, 0.02 M CaCl2, 0.1 M HEPES pH 6.5; packing in the asymmetric unit
substance,measurement,value
"PrgH_(11–120), cytoplasmic domain of the inner-membrane ring protein PrgH (from UniProt P41783 11-120) (domain or fragment)",stoichiometry N,6
